Results on two substances are retold here after patent publication US20080242557A1, “System For Detecting Molecular Interactions” (CGK CO., LTD., priority 2004, published 2008).

In one test the target is T1, Caspase-3 (Homo sapiens, UniProt P42574).
T1 construct: mRFP (N); expressed in transfected cells; host or cells: HeLa
T1 sequence (P42574 29-277): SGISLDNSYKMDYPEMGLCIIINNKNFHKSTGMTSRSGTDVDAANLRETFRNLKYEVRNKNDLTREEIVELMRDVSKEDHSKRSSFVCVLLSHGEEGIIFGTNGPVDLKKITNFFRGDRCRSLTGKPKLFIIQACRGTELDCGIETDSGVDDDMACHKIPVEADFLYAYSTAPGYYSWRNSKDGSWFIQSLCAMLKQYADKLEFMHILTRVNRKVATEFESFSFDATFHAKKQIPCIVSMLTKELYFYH
In words: Magnetic-field translocation of mRFP-Caspase3 by DEVD-MNPs in HeLa cells. The test is classed as cell-based. Conditions: EGFP expressing cells as negative control showed no motion. The protocol: A DEVD-MNPs complex was obtained by reacting a Streptavidin nanoparticle, caspase-3 inhibitor II (DEVD)-biotin conjugate (CALBIOCHEM) and TATHA2-biotin at 40 C for 1 hr while agitating the reaction mixture. Unbound ligands were removed from the reaction mixture by purifying the complex using a paramagnet. After introducing mRFP-Caspase3 or EGFP expressing plasmid into a HeLa cell (ATCC), the cell was incubated. The DEVD-MNPs were introduced into the cell, and a magnetic field (M.F.) was externally applied to the cell using a paramagnet or electromagnet. The confocal images were captured using a confocal laser microscope (Carl Zeiss) for the live cells while applying magnetic field as well as not applying magnetic field.

For test [1], the system named is IκBα phosphorylation (IKK). In words: Detection of IκBα phosphorylation: translocation of IκBα-mRFP with anti-phospho-IκBα (Ser32)-MNPs in HeLa cells. Conditions: HeLa cells treated with various chemical compounds and growth factors. In kind it is cell-based.

Take “DEVD-MNPs: Streptavidin nanoparticle reacted with caspase-3 inhibitor II (DEVD)-biotin conjugate and TATHA2-biotin”: the “localization of cells expressing mRFP-Caspase3 by external magnetic force” value with Caspase-3 is “only the cells (indicated with red arrows) expressing mRFP-Caspase3 were localized”. TNF-α: the “translocation of the IκBα-mRFP fusion protein under the magnetic field (interaction activator screening)” value in test [1] is given as “observed to translocate the IκBα-mRFP fusion protein”.
